Test results published in the supplement of paper PMC12042874.
± gives the uncertainty stated by the source.

Assay: amyloid nucleation score (Sup35N fusion, yeast selection) (log enrichment); library NNK2; higher = more nucleation; inactive = no reads after selection
Outline: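 Using DiMSum, nucleation scores were taken as the log enrichment of output over input reads, centred on the mode score of non-aggregating sequences. The input and output reads came from Illumina sequencing of plasmid inserts, with sequences under 100 input reads excluded. The yeast were psi-negative, expressed Sup35N fused to peptides of 20 random codons, were induced with 100 μM copper sulfate for 24 hours, and were grown 7 days at 30°C on medium lacking adenine and uracil.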

| Substance | amyloid nucleation score |
| --- | --- |
| NDSQTTLGLFDCRVREADHR | -0.003 ± 1.1 |
| NDTAATGANDETSDFYTEYC | 0.376 ± 0.66 |
| NDTWR | 3.68 ± 0.049 |
| NDVNDLMGCTNQRGMYPQII | inactive |
| NDWLSHGR | 4.31 ± 0.054 |
| NDYEPRCMFGRIVCSNGPEM | 1.14 ± 0.42 |
| NEEWSFCKS | -0.165 ± 1 |
| NENKILSDL | -0.585 ± 0.36 |
| NFCALSKCT | -0.618 ± 0.63 |
| NFENCVFWYNLYCNFD | 7.516 ± 0.047 |
| NFFAHRVCHYFVIRCGLIT | inactive |
| NFHLEIIFPRQLRLNRSPWV | 3.96 ± 0.13 |
| NFIVW | -0.417 ± 0.64 |
| NFKCFTRRVNWESYITEVVR | 3.19 ± 0.068 |
| NFLRML | -0.139 ± 0.21 |
| NFLWVLSRKSHGIPYRKFSN | inactive |
| NFNFNCA | 3.87 ± 0.093 |
| NFSAFGRFNLNLWMNNITRL | 4.05 ± 0.077 |
| NFSDFRCLL | -0.031 ± 1 |
| NFSIL | -0.184 ± 1.1 |
| NFTIHTWVYMHRVNPPGILN | inactive |
| NFVNSFRVPISVYKVYLYGG | 4.49 ± 0.08 |
| NGFCYFDGLSLSYSKLTGMM | inactive |
| NGFVSSSRSFICFRWKWRYY | 0.255 ± 1.1 |
| NGGAVFCVHACYGFRGRYER | 5.05 ± 0.045 |

| Substance | amyloid nucleation score |
| --- | --- |
| NGGDRVLSFDIIIAGSLVAK | -0.354 ± 0.39 |
| NGIRQDNMGGVHVPTGSTII | -0.277 ± 0.39 |
| NGLGLTIWL | 0.448 ± 0.22 |
| NGLQRLITNSKFPTRWTWFG | 0.206 ± 0.33 |
| NGQYDDTG | 2.32 ± 0.14 |
| NGSSKIERDQRRWGQKAVDT | 2.83 ± 0.089 |
| NGTLRQYDRSDYINKIGDSN | -1.02 ± 0.38 |
| NGVIRVSWSTR | 6.48 ± 0.087 |
| NGVPT | -1.43 ± 1.1 |
| NGVSMESRFQFSDWWNPTYY | -0.847 ± 0.64 |
| NGYRNFIRGHDSRFRGVTTT | 4.66 ± 0.05 |
| NHIFYRMCSNLTAKYIRLTS | inactive |
| NHLMSMFDCSDTQMSSSSIA | 0.308 ± 0.32 |
| NHTSNIGSRGTAFFWVLR | 7.187 ± 0.069 |
| NICELPITHKVGSWV | 0.518 ± 0.38 |
| NICRM | -0.058 ± 0.53 |
| NIFNRA | inactive |
| NIFRESEAERRALNKFYMSF | 0.04 ± 0.76 |
| NIFRRLLSIIIVFDQDRRKM | -1.01 ± 1.1 |
| NILIRASGVRA | inactive |
| NINMWSLCRFLWDAFARR | 0.378 ± 0.26 |
| NIQPEK | -0.587 ± 0.39 |
| NIVLTLSRGF | 2.56 ± 0.1 |
| NIVRYAMELCDIN | 4.08 ± 0.1 |
| NIVVPRRL | 2.53 ± 0.13 |

| Substance | amyloid nucleation score |
| --- | --- |
| NIYLFMLMWDWTSYMALCCV | 3.94 ± 0.081 |
| NKANLLYSPLLCLMAVHRMY | inactive |
| NKMEDHGMWDLIAYRGVIPL | -0.269 ± 0.22 |
| NKVAKLDFFFLKGPAFRNKA | inactive |
| NLARYLLRKELARYFMSQ | -0.578 ± 0.41 |
| NLCSKRRNL | -0.927 ± 0.78 |
| NLFKDTISSLHNGIETIAPF | -0.82 ± 0.61 |
| NLFLFVRGLGRGWSWWWEVR | 0.415 ± 0.8 |
| NLHFCVQKSGESASRVVHHA | 0.958 ± 0.46 |
| NLHLSGKMGSPTFRVRIYAH | inactive |
| NLILYPRHDNYQSS | inactive |
| NLMIKCVGR | -1.05 ± 0.76 |
| NLMVHVFAAVMGINDLKC | 1.41 ± 0.18 |
| NLNIFGLAMLCNRRGAYMRK | 6.829 ± 0.039 |
| NLNPRCIACLQQPTFHMKMA | -0.101 ± 0.32 |
| NLPIGLCSAGRFLGNNL | 0.123 ± 1 |
| NLPLL | -0.027 ± 0.54 |
| NLQSTMMLYYCFRVMMLLAW | -0.762 ± 0.38 |
| NLRSLECLCMRCK | -0.145 ± 0.79 |
| NLSRV | -0.741 ± 0.34 |
| NLTNRYFNFSRTEPCNKYLT | 0.895 ± 0.81 |
| NLVTFVWKRYLINIISVTKD | -1.51 ± 1.1 |
| NMPFYRFAKRTWFRNPQSFV | -1.19 ± 1 |
| NMPHPHEFIRSPCICLRHVV | inactive |
| NMRSNRVSLVPDGMLRLSAN | 1.39 ± 0.28 |

| Substance | amyloid nucleation score |
| --- | --- |
| NMSLHRAILGFKAATIMRSL | -0.821 ± 1.1 |
| NMYFEVALFT | -1.22 ± 0.64 |
| NNIGS | inactive |
| NNIVIYDDLYNSMMALLWS | -1.25 ± 0.64 |
| NNLCQ | -0.1 ± 0.32 |
| NNSMYILYSGYTFGCYTRGL | 6.38 ± 0.066 |
| NNVPCRSIADVYALEFLYAS | inactive |
| NPALSSWAEGSTP | 0.299 ± 0.61 |
| NPRTQF | -0.108 ± 0.28 |
| NPVINT | -0.271 ± 0.46 |
| NQFNVFFASVVLVVGCICNH | 7.622 ± 0.029 |
| NQGIKRRLFHNWLNRGRLLF | inactive |
| NQITDMLIFWFVGIRWFYSE | 0.679 ± 0.81 |
| NQLRVLMTFFWPGMLNTPAV | -0.089 ± 1.1 |
| NQMYQNE | -0.352 ± 0.45 |
| NQNVSLGVTMCFNSNYDRQG | 7.53 ± 0.081 |
| NQTPLMLACSADFHSISSWT | 0.365 ± 0.4 |
| NRCWGDHEV | 0.435 ± 0.39 |
| NRCYHFRDCQVYLTQDASWA | 8.515 ± 0.048 |
| NREANLDDWLGRGQFSMIWW | -0.287 ± 0.79 |
| NREFCFFVSDVKIPYTPCVP | -0.609 ± 0.32 |
| NRGEDSPSYPGCHHMKLCIC | inactive |
| NRGISLGIHLRPGCMCAAHR | 0.005 ± 1 |
| NRIGDIGFSPNMCQAPNDVD | 0.095 ± 0.53 |
| NRKTIIVEPTNACRS | 0.775 ± 0.29 |

| Substance | amyloid nucleation score |
| --- | --- |
| NRKWIDRLVYKGNNPYHGEV | 0.906 ± 0.57 |
| NRLLSVSEFAMDTRMRQEEA | 1.01 ± 0.36 |
| NRLWHPQCLWAFLNIRNPQL | 0.286 ± 0.48 |
| NRNHMCRSCYMGWFRGRAKA | -1.04 ± 0.42 |
| NRSHCIVVQLLRCFGYVPYG | inactive |
| NRSREELYARNKQYFSFI | -0.986 ± 0.76 |
| NRSTDAYFIILHICYTNGVY | -0.429 ± 0.61 |
| NRVFVVND | 1.4 ± 0.2 |
| NRYYYISSQGDDMQAGCFHY | -0.963 ± 1.1 |
| NSASLFFS | 0.27 ± 0.17 |
| NSIESNSCKWVRNVCTANSG | -0.587 ± 0.76 |
| NSLRCSLIWMGQLPLSGTHV | inactive |
| NSMNVGSFRSSEWLVLFENV | -0.453 ± 1.1 |
| NSNGTFGQCLVM | -0.293 ± 0.5 |
| NSPNCDHASRKLIHR | 0.07 ± 0.61 |
| NSRIL | inactive |
| NSRISKNNLSRSLT | -0.196 ± 0.56 |
| NSRLMMCEIPERCM | 0.512 ± 0.28 |
| NSRNSSYKWFSSSFVHVADF | 1.71 ± 0.088 |
| NSSPTSFLLIMSLNCCICVN | 8.228 ± 0.024 |
| NSSVW | -1.01 ± 0.48 |
| NSVMIDTDVKFAFFRSET | inactive |
| NSVSCANYTLHPIAMDWNGP | inactive |
| NSYIRHSFLQTRFISTNV | -0.306 ± 0.36 |
| NTGVIYDAT | -0.307 ± 0.63 |

| Substance | amyloid nucleation score |
| --- | --- |
| NTIMFEFICSIGITVYD | 1.33 ± 0.21 |
| NTLSR | 5.654 ± 0.05 |
| NTMMGV | -0.724 ± 0.64 |
| NTMTSHMFENNRSIVTYLDV | -0.718 ± 0.76 |
| NTNASDWRGAMLLSCMRFYS | -0.257 ± 0.42 |
| NTNRVVWVVLAMKI | 0.086 ± 0.77 |
| NTTMWGHVYMHLANMYTEFC | inactive |
| NTVKKLHLLQHHRVYVCATT | -0.965 ± 0.78 |
| NTVWSFSSEWLFKQQLVCVR | 0.091 ± 0.53 |
| NVGSVKHGS | 0.531 ± 0.57 |
| NVGTEFVWIPYFYSAS | 0.716 ± 0.66 |
| NVIRHLPPSYWRSLHSQMFP | inactive |
| NVLCKRVMMV | 0.384 ± 0.66 |
| NVRDSYVNNCMTKGPRLNGV | -0.686 ± 0.34 |
| NVWILNNYGQCIKS | 5.254 ± 0.023 |
| NVYSAYNLACFALLYCLLIW | 0.691 ± 0.8 |
| NWIDVLFKCKC | -0.156 ± 0.62 |
| NWIQRQVL | inactive |
| NWLIMYNFAR | inactive |
| NWPETT | 2.48 ± 0.19 |
| NWSVILYIRACTASNIEWLS | 1.52 ± 0.44 |
| NWTLYFDNRGRVLNTYSTRY | 7.718 ± 0.031 |
| NWVPLLFDY | inactive |
| NYAQATRMFFNLMKSWLKMR | -1.02 ± 1.1 |
| NYCRVDLHSYKCYVVCSMFM | 4.76 ± 0.11 |

| Substance | amyloid nucleation score |
| --- | --- |
| NYCYLFLTYCWVQRMSEGFS | 2.88 ± 0.098 |
| NYFVNSI | inactive |
| NYGGPMVNDAFVCTLAGPV | inactive |
| NYGSSRLAPVHNT | 3.17 ± 0.12 |
| NYGSTLVDWRVRFTRTRTWS | 0.503 ± 0.3 |
| NYILRQAGEMFGLLGDFGDG | -0.165 ± 0.45 |
| NYIVVARFYSRVVFFRV | inactive |
| NYKYINVHGGYVSCLKREEE | inactive |
| NYLDLFTRVWKS | inactive |
| NYLQCWVFGRESMSLYKIWL | -0.081 ± 1.1 |
| NYLRYLLMDSHMRLMDRWKQ | 4.87 ± 0.069 |
| NYLYHLPYLRTSVLRRLRPV | 0.426 ± 0.3 |
| NYRRGEKNGVDVNLASKQCT | 0.86 ± 0.46 |
| NYSIFDWTCSSKMSIITCAK | 5.697 ± 0.029 |
| NYTWGEIYGH | -1.2 ± 0.79 |
| NYVYSTCYALDQCQFKYNVQ | 0.655 ± 0.26 |
| NYYINDADGRLLARWLYKLF | -0.865 ± 0.25 |
| NYYYIVLLYRSLLLMS | -0.265 ± 0.41 |
| PACYKDYGSKSPHPPTVGLG | -0.159 ± 0.76 |
| PAFQCMVQMKPGLWVV | -0.456 ± 0.78 |
| PAFVYHFYQYNLTICYGYLG | -0.313 ± 0.5 |
| PCIGSQFFYSFGGLIK | -0.736 ± 0.35 |
| PCSLLKNWYIEAYTALQNIG | 0.383 ± 0.74 |
